Experimental data published in the Human Domainome abundance scans (Beltran et al. 2025).

B1: Gamma-crystallin S, residues 96 to 176; numbered along this chain, P22914 (parent)
chain: IQIFEKGDFSGQMYETTEDCPSIMEQFHMREIHSCKVLEGVWIFYELPNYRGRQYLLDKKEYRKPIDWGAASPAVQSFRRI

Variants of: B1
Experiment: abundance fitness (aPCA) (normalised: wild type 0, dead -1); higher = more abundant; growth selection in yeast, the domain comes from the species named
Conditions: Homo sapiens

Abundance fitness of substitutions, site by site:
L57: V 0.045; N -0.526; F -0.311; K -0.414; C -0.273; A -0.039; T -0.078; R -0.288; Q -0.491; S 0.171; M 0.17; P -0.517; G 0.026
K59: Y -0.077; Q -0.022; T 0.089; C -0.104; G -0.133; F -0.107; H 0.323; M -0.136; E -0.31; V 0.119; D -0.153; W -0.084; A 0.012; I 0.026; P -0.229
E61: L -0.135; N 0.035; W 0.086; Q -0.05; M -0.028; S -0.358; V 0.084; H -0.205
Y62: A -0.099; W 0.281; V -0.184; N 0.002; P 0.177; C -0.162; H 0.117; F 0.16; G -0.075; S -0.129; M 0.116; T -0.174
K64: Y -0.026; L -0.07; R -0.146; P -0.215; I -0.368; A 0.034; W -0.24; Q -0.063; V 0.002; D -0.118; H -0.372; C -0.146; G 0.031; T -0.164
D58: C 0.054; V 0.023; P -0.342; S 0.014; R 0.04; T 0.008; G 0.031; Y -0.067; K 0.012; E 0.085; A 0.04; F -0.099; W -0.461
I66: S 0.061; E 0.007; M -0.022; Q 0.185; R 0.03; G -0.074; Y -0.2; A -0.032; T -0.047; W 0.011; L -0.008; C 0.131; K -0.432
R63: G 0.092; D -0.051; A -0.098; T -0.102; P -0.096; F -0.025; K -0.093; S -0.022; V -0.118; L 0.133; E -0.032; Y -0.158; W 0.065
P65: T 0.059; C -0.184; G -0.009; V 0.141; L -0.064; Q 0.045; Y 0.199; N -0.284; W -0.024; R 0.033; E -0.004; A 0.094; S -0.008
G69: C -0.242
D67: Q -0.034; A 0.149; T -0.262; Y -0.144; S 0.037; I 0.127; K -0.127; E 0.069; P -0.154; W 0.053; L -0.321; F -0.036; R 0.146; G -0.098
W68: Y -0.425; R -0.169; K -0.067; C -0.026; L -0.044; A -0.167; M 0.131; S 0.006; G -0.139; P -0.289; T 0.089; E -0.059
K60: P -0.154; I -0.18; W -0.116; E -0.049; A -0.001; Q 0.064; V -0.242; L -0.035; C 0.021; S 0.005; R -0.143; D -0.251; G 0.017; N 0.111; M 0.078
L56: F 0.04; T -0.04; R 0.191; G 0.064; M -0.228; K -0.161; W 0.047; P 0.166; V -0.133; Q -0.052; S -0.031
